Assay [1] addresses T1, Recombinant human renalase-1 expressed and secreted by pCDNA3-renalase-1-transfected 293T cells (human, UniProt Q5VYX0 18-342, limits assumed).
T1 construct: whole renalase-1 entry named; Present in cell culture supernatant; also called mammalian-expressed recombinant human renalase
As to the kind of experiment: Western blot; lane 293 s/n taken as supernatant of renalase-expressing 293 cells, the text does not explain the lane. (In western blotting, separated proteins are transferred to a membrane and probed.)

Assay [2] has as its target T1, Recombinant human renalase-1 expressed …. As to the kind of experiment: Immunoprecipitation from 293T supernatant with Protein G Sepharose, Western blot with biotinylated Ren 28-4. The procedure: All samples were incubated for 2 hours at 4° C. on a shaker. Immunoprecipitates were then washed 3 times with 1 mL RIPA buffer. 50 ul SDS-PAGE sample buffer (Fermentas) was added directly to Protein G-antibody immunoprecipitates and samples were heated to 95° C. for 5 minutes before running on SDS-PAGE. Actigel-antibody immunoprecipitates were washed a further 2 times in PBS prior to addition of 50 ul 0.1 M Glycine, pH 2.5. Samples were then agitated at room temperature for 10 minutes. Eluted proteins were recovered after centrifugation and resolved by SDS-PAGE. In all experiments 20 μL immunoprecipitate input material and 0.5 ng recombinant renalase positive control (RV11) were also loaded onto the gel.
In the example where a Protein G-mediated immunoprecipitation was used the western primary antibody was biotinylated-Ren 28-4 followed with a neutravidin-HRP secondary probe. In all cases where no immunoprecipitating antibody was added, no renalase was detected on the Western blot. All of the 1D and 1F antibodies (monoclonal and polyclonal) were able to immunoprecipitate bacterially- or mammalian-expressed recombinant human renalase.

Assay [3] addresses T2, RPC2 reference standard peptide.
T2 construct: Synthetic: m42 peptide antigen linked to the m28 peptide antigen
Briefly: standard curve in the sandwich ELISA with m42-RNLS capture and electro-chemiluminescence detection. The procedure:
(§1) In this example, human plasma samples were pretreated as follows: To 40 μL of plasma, 20 μL of 1N Citric acid was added and the samples were incubated on a shaker for 15 min at RT. The reaction solution was neutralized by adding 40 μL of 1M Na₂HPO₄. The samples were then stored on ice and further diluted with Diluent 100 to obtain readings in linear range. Assay protocol: Renalase levels in plasma was measured using the prototype assay on the Mesoscale platform (Meso Scale diagnostics, Gaithersburg, Md., USA) which employs proprietary electro-chemiluminescence detection methods combined with patterned arrays. Standard 96-well assay plate from Mesoscale Diagnostics were coated with 40 μL of Ren 1F 42-7 (m42-RNLS) capture antibody (2 μg/mL) and incubated for 2 hours on a shaker at room temperature. Following this, 150 μL of 3% Blocker A was added and the plate incubated on a shaker for 1 hour at room temperature. The plate was then washed with 150 μL of PBST (3 times); diluted acid activated samples and calibrator was added and the plate incubated for 2 hrs at RT on a shaker. […] The plate was washed and 2× read buffer was added and the plate imaged on SQ120 (Meso Scale Discovery). The raw data was analyzed using the Discovery Workbench software. […]
(An ELISA detects its analyte on a solid surface through an enzyme-linked reagent.)

The target of assay [4] is T3, RPC1 reference standard peptide.
T3 construct: Synthetic: m42 peptide antigen linked to the m28 peptide antigen
Described as above. The procedure:
as §1

This is an account of results in patent publication US20200340031A1 (YALE UNIVERSITY, published 2020).

T1 sequence (Q5VYX0 18-342 limits assumed): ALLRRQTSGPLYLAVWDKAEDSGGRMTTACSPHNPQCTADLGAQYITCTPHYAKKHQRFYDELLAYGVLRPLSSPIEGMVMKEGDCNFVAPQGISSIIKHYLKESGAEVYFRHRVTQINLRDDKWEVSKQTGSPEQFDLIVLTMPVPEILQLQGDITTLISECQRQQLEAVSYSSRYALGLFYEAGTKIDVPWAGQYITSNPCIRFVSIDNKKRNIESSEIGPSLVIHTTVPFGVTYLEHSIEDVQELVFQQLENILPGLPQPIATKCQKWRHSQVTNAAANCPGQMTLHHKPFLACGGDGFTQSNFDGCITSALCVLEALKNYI
T3 sequence (peptide, as listed by the source): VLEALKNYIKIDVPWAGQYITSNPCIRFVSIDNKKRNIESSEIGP
T2 sequence (peptide, as listed by the source): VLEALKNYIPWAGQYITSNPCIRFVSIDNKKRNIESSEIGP

B1: anti-1D epitope monoclonal antibody 1D-37-10 (antibody, V domains shown)
VH: QSVEESGGRLVTPGGSLTLTCTVSGFSLSDYAIIWVRQAPGKGLEYIAIIGSSGDTFYATWAKGRFTISKTSTTVDLKMTSLTAADTATYFCAPRYAGTTDYHDAFDPWGPGTLVTVSS
VL: EVVMTQTPASMEAPMGGTVTIKCQASQNIYNYLSWYQQKPGQPPKLLVYKASTLTSGVPSRFKGSGSGTQFTLTISDLECADAATYYCQINYSIYNHYNIIFGGGTEVVVKG
notes: Rabbit monoclonal; also called Ren 1D 37-10
As for B1, the binding result in assay [1] is “binds”.

B2: anti-1F epitope monoclonal antibody 1F-26-1 (antibody, V domains shown)
VH: QSVKESEGGLFKPTDTLTLTCTVSGFSLSSYGVTWVRQAPGNGLEWIGLIGDRGTTFYASWAKSRSTITRNTNLNTVTLKMTRLTAADTATYFCARGSGYGARIWGPGTLVTVSS
VL: AQVLTQTPSPVSAAVGGTVTINCQSSQSVYKNNYLAWYQQKPGQPPKLLIYETSKLASGVPPRFSGSGSGTQFTLTISSVQCDDAATYYCQGGYSGVDFMAFGGGTEVVVKG
notes: Rabbit monoclonal; Used biotinylated as detection antibody in the sandwich ELISAs; also called Ren 1F 26-1
Regarding B2, in assay [2], the binding result is reported as “binds”.

B3: anti-1F epitope monoclonal antibody 1F-42-7 (antibody, V domains shown)
VH: QSVKESEGGLFKPTDTLTLTCTVSGFSLTTYGVTWVRQAPGNGLEWIGLIGDRGTTYYASWVNGRSTITRNTNLNTVTLKMTRLTAADTATYFCARGSGYGARIWGPGTLVTVAS
VL: AQVLTQTPSPMSAALGGTVTINCQSSQTVYNNNYLSWYQQKPGQPPKLLIYETSKLSSGVPPRFSGSGSGTQFTLTISSVQCDDAATYYCQGGYSGVDFMAFGGGTEVVVKG
notes: Rabbit monoclonal; also called Ren 1F 42-7; m42-RNLS
For the molecule B3, the binding result in assay [2], in assay [3] and in assay [4] was “binds” in each case.

B4: anti-1D epitope monoclonal antibody 1D-28-4 (antibody, V domains shown)
VH: QSVEESGGRLVTPGTPLTLTCTVSGFSLSSFAVGWVRQAPGKGLEYIGIISSVGITRYASWAAGRFTISKTSTTVDLKITSPTTEDTATYFCARYGYSGDVNRLDLWGQGTLVTVSS
VL: AQVLTQTASPVSAAVGGTVTINCQASQSVYDNNNLAWYQQKPGQPPKQLIYGASTLASGVSSRFKGSGSGTQFTLTISGVQCDDAATYYCLGEFSCSSADCFAFGGGTEVVVKG
notes: Rabbit monoclonal from hybridoma, purified on Protein A. Used biotinylated in some assays; also called Ren 1D 28-4; Ren1D 28-4
Consider B4, for which the binding result in assay [1] is given as “binds”.
